The values below come from publication PMC4316771.

In test [1] the target is soluble human FcRn (human) (UniProt P55899). In words: SPR; BIAcore X100, CM5 chip, recombinant human FcRn immobilised; IgG 1-200 nM flowed at 10 μl/min, 25°C, 50 mM sodium phosphate pH 6.0, 150 mM NaCl, 0.02% NaN3, 0.01% Tween-20; steady-state affinity model.
Test [2] deals with FcRn-p3 (human FcRn fused to the amino terminal part of the bacteriophage p3 protein and the CVDE protein) (human) (UniProt P55899). Description: ELISA; FcRn-p3 (0.1 μg/well) coated on Maxisorp plates in P6 (pH 6.0); IgG in HEK293-F supernatants aggregated with HRP F(ab')2 goat anti-human F(ab')2, diluted in P6 to 0.0375 μg/ml, 1 h at 30°C; results as ratio variant/WT. A general note: ELISA stands for enzyme-linked immunosorbent assay.

The next test addresses human complement C1q. Description: ELISA; C1q (0.5 μg/well) or FcγRIIIA-V158 (0.1 μg/well) coated on Maxisorp plates, FcγRIIA-R131 (0.1 μg/well) or FcγRIIB (0.4 μg/well) on nickel chelate plates; IgG in HEK293-F supernatants aggregated with HRP F(ab')2 goat anti-human F(ab')2, 0.5 μg/ml (0.25 μg/ml for FcγRIIIA-V158) in PBS, 1 h at 30°C; results as ratio variant/WT.
Test [3] deals with human FcγRIIA-R131 (human). The test is described as above.
Test [4] concerns the target human FcγRIIIA-V158 (human). The description is as above.
In the next test the target is human FcγRIIB (human) (UniProt P31994). Described as above.
Test [5] addresses FcRn-p3 (human FcRn fused to the amino terminal part of the bacteriophage p3 protein and the CVDE protein) (human) (UniProt P55899). Description: ELISA; phage-ELISA at pH 6.0: FcRn-p3 coated on Maxisorp plates (0.25 μg/well); phage-Fc supernatants diluted 1/2 and 1/4 in P6 (100 mM sodium phosphate, 50 mM NaCl, pH 6.0) with 5% skimmed milk and 0.1% Tween-20; 2 h at 37°C; bound phages detected with HRP anti-M13 antibody; results as ratios of signals.

UniProt P31994, sequence (P31994 43-217): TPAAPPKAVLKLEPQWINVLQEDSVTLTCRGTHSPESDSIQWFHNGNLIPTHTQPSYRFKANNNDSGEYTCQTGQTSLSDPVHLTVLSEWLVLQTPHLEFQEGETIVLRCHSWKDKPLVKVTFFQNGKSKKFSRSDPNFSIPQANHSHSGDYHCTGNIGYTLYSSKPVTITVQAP

Broadly, the Kd is the equilibrium constant for the complex coming apart. Regarding “anti-CD20 IgG1 IgG-WT (produced in YB2/0 cells) (antibody)”, the Kd in test [1] was found to be 101 nM.

For “anti-CD20 IgG1 variant IgG-QL (produced in HEK293-F cells) (antibody)”, the ELISA ratio variant/WT in test [2] amounted to 2.39; with human complement C1q, 2.47; in test [3], 0.99; in test [4], 0.59; in the test with human FcγRIIB (human), 0.95.

For “Fc variant Fc-QL (phage-displayed Fc 226-447) (domain or fragment)”, the phage-ELISA ratio/Fc-WT in test [5] stood at 3.2.

As for “Fc variant Fc-YTE (phage-displayed Fc 226-447) (domain or fragment)”, the phage-ELISA ratio/Fc-WT in test [5] turned out to be 3.5.

On to “anti-CD20 IgG1 variant IgG-LS (produced in HEK293-F cells) (antibody)”, for which the ELISA ratio variant/WT in test [2] was found to be 4.46; with human complement C1q it was 2.39; in test [3] it was 2.52; in test [4], 1.3; in the test with human FcγRIIB (human), 0.97.

Consider “anti-CD20 IgG1 variant IgG-YTE (produced in HEK293-F cells) (antibody)”, for which the ELISA ratio variant/WT turned out to be 2.06 in test [2]; 0.64 with human complement C1q; 0.27 in test [3]; 0.27 in test [4]; 0.42 with human FcγRIIB (human).
